Test results as given in PMC9736779, “Properties and Potential Antiproliferative Activity of Thrombin-Binding Aptamer (TBA) Derivatives with One or Two Additional G-Tetrads”.

Target: nucleolin (NCL) (Homo sapiens, UniProt P19338 1-710)
Experiment: SPR; 70 mM KCl; SPR (Biacore X-100, CM5): 10 mM HEPES, 70 mM KCl, pH 7.4, 25 C; analyte 5-500 uM; two-state reaction fit
Conditions: protein: commercial

Chain of nucleolin (NCL) (P19338 whole entry): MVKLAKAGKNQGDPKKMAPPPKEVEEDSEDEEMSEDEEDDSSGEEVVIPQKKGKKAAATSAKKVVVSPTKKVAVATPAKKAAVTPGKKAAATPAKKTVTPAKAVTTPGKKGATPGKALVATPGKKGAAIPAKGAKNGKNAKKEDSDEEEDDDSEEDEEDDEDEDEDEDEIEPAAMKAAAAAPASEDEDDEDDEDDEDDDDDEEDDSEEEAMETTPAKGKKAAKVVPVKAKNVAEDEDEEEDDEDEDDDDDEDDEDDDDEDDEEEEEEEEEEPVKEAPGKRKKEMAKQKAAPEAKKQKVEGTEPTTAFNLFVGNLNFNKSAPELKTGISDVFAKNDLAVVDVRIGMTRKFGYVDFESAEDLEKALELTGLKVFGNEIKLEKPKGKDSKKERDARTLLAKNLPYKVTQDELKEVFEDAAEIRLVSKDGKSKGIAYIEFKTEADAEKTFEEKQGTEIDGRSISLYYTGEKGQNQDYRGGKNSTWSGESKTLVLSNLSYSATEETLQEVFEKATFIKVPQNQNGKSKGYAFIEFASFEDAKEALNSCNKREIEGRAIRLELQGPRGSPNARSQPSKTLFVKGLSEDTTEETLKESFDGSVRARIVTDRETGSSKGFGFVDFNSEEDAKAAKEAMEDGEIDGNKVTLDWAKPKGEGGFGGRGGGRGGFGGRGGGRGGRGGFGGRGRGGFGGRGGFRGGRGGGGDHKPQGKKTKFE

Binder: GGTTGGTGTGGTTGG (structured_DNA) [TBA]
- Kd (antiparallel G4, intramolecular): 62.5 µM

Binder: GGGTTGGGTGTGGGTTGGG (structured_DNA) [TBAG3]
- Kd (G4, one extra G-tetrad, intramolecular): 1290 µM

Binder: GGGGTTGGGGTGTGGGGTTGGGG (structured_DNA) [TBAG4]
- Kd (antiparallel G4, two extra G-tetrads, intramolecular): 13.5 µM
